Data from doi:10.1101/664102.
Substitutions are numbered along the chain they refer to. Names may count otherwise. “And” between values parts separate entries of the source, which are not always exact repeats. Equal entries are not always repeated.

Columns and labels:
Test in all cases: fluorescence polarisation
[1] = molecular target: fluorescein-labeled CaV1.2 IQ peptide K1662E (rat)
[2] = molecular target: fluorescein-labeled CaV1.2 IQ peptide WT (residues 1644-1666) (rat)
[3] = molecular target: fluorescein-labeled CaV1.2 IQ peptide K1647A (rat)
[4] = molecular target: fluorescein-labeled CaV1.2 IQ peptide K1647E (rat)
[5] = molecular target: fluorescein-labeled CaV1.2 IQ peptide WT (residues 1644-1666) (rat); remark: listed apart in the source

Ca2+-free calmodulin (apoCaM) (from UniProt P0DP33 1-149) (natural protein)
fold decrease in binding affinity against the WT pair [1]: > 5 fold
Kd [2]: 10 µM and 2.6 µM

apoCaM mutant E88K (from UniProt P0DP33 3-149) (natural protein)
fold decrease in binding affinity against the WT pair [2]: > 5 fold

apoCaM mutant F90A (from UniProt P0DP33 3-149) (natural protein)
fold decrease in binding affinity against WT apoCaM [2]: 3.3 fold

B1: α-actinin-1_EF34 (residues 822-892) (domain or fragment)
chain: DTDTADQVMASFKILAGDKNYITMDELRRELPPDQAEYCIARMAPYTGPDSVPGALDYMSFSTALYGESDL
fold increase of Kd against the WT IQ peptide [3]: 5 fold
fold increase of Kd against the WT IQ peptide [4]: 5 fold

B2: α-actinin-1_EF34 mutant E847K/E851K (domain or fragment)
chain: B1 chain with E26K, E30K
fold increase of Kd against WT α-actinin-1 EF3/4 [5]: 12 fold

B3: α-actinin-1 EF3/4 mutant F833A (domain or fragment)
chain: B1 chain with F12A
fold decrease in binding affinity against WT α-actinin-1 EF3/4 [5]: 8 fold
